Source: US20130045200A1

Biological target: rat PD-L1 (rat) (UniProt D4AE25)
Experiment: flow cytometry (FACS); rat cells or protein not described

EC50: 800 pM
Substance: YW243.55.S70 (IgG) (antibody)
